These results are taken from the RNAGym collection of RNA variant scans (doi:10.7554/elife.90254).

The labels stand for the following.
B1: LINE1-mini (parent)
chain: GGCAGAGCUCAACACAGCGUGGCAAAGUGGCUGUGGCUAGACUGCC

The variants in this data set derive from B1. The experiment in a line: self-cleavage, relative activity (ratio to wild type); higher = more cleavage; in vitro, sequencing; the parent is a self-cleaving ribozyme.
For U32G U38C, the self-cleavage is 0.12. Take U32G U38G: the self-cleavage was 0.03. Take U32G U38A: the self-cleavage was 0.07. Consider C31G A41G, for which the self-cleavage was 0.03. In the case of C31G A41C, the self-cleavage was determined as 0.05.

In the case of C31G A41U, the self-cleavage amounted to 0.09. As to C31U G33U, the self-cleavage is 0.06.

On to C31U G33C, for which the self-cleavage was found to be 0.15. Consider C31U G33A, for which the self-cleavage is 0.09. As to C31A U34G, the self-cleavage is 0.02.

Consider C31A U34A, for which the self-cleavage was 0.05. C31A U34C: the self-cleavage is 0.06.

On to U32G C46A, for which the self-cleavage is 0.2. For U32G C46U, the self-cleavage was found to be 0.17. In the case of U32G C46G, the self-cleavage came to 0.1.

For the variant G30U U34G, the self-cleavage is 0.09. Take G30U U34C: the self-cleavage came to 0.05. Consider G30U U34A, for which the self-cleavage amounted to 0.05. C31A C46A: the self-cleavage is 0.13. Consider C31A C46U, for which the self-cleavage worked out at 0.11. Under C31A C46G stands 0.11.

Consider C31A U38G, for which the self-cleavage was 0.03. For the variant C31A U38C, the self-cleavage was 0.16.

As to C31A U38A, the self-cleavage worked out at 0.12. Under G30U C45G stands 0.29.

With G30U C45A, the self-cleavage worked out at 0.49. On to G30U C45U, for which the self-cleavage turned out to be 1.11.

As for C31G G35C, the self-cleavage stood at 0.05.

For the variant C31G G35A, the self-cleavage amounted to 0.04. For the variant C31G G35U, the self-cleavage was found to be 0.03.

As to U32G A41U, the self-cleavage worked out at 0.07. Regarding U32G A41G, the self-cleavage came out at 0.08. U32G A41C: the self-cleavage was determined as 0.05. For the variant U32C G36A, the self-cleavage came out at 0.08. Under U32C G36C stands 0.04; under U32C G36U, 0.06. Under G30U C42U stands 0.32; under G30U C42G, 0.05; under G30U C42A, 0.12. On to U32G G35A, for which the self-cleavage was 0.09. Next, U32G G35U: 0.06; U32G G35C: 0.1; U32A C45G: 0.07. With U32A C45U, the self-cleavage was 0.07. With U32A C45A, the self-cleavage was determined as 0.11. With C31U U38C, the self-cleavage stood at 0.14.

Consider C31U U38A, for which the self-cleavage stood at 0.2. On to C31U U38G, for which the self-cleavage stood at 0.05.

As for U32C C37G, the self-cleavage was determined as 0.06. As to U32C C37U, the self-cleavage amounted to 0.07. For U32C C37A, the self-cleavage is 0.15.

Consider G33A C46A, for which the self-cleavage stood at 0.1. Turning to U32C C46U, the self-cleavage came to 0.2. For the variant U32C C46A, the self-cleavage was 0.16. With U32C C46G, the self-cleavage worked out at 0.1. G33A A39G: the self-cleavage turned out to be 0.09. Take G33A A39C: the self-cleavage was determined as 0.08. Next, G33A A39U: 0.06.

As for C31U G44C, the self-cleavage was 0.07. As to C31U G44A, the self-cleavage stood at 0.04.

For the variant C31U G44U, the self-cleavage amounted to 0.05.

With U32G G33C, the self-cleavage stood at 0.09.

As to U32G G33A, the self-cleavage is 0.08. As for U32G G33U, the self-cleavage amounted to 0.07. Regarding U32C C42U, the self-cleavage was found to be 0.22.

Consider U32C C42G, for which the self-cleavage came out at 0.1. Turning to U32C C42A, the self-cleavage was 0.12.

Turning to G30U C31G, the self-cleavage came out at 0.06. On to G30U C31A, for which the self-cleavage was 0.19. For G30U C31U, the self-cleavage was 0.07. C31U A41C: the self-cleavage is 0.06. Turning to C31U A41U, the self-cleavage was 0.16. Next, C31U A41G: 0.04. Consider U32A U38C, for which the self-cleavage worked out at 0.07. Turning to U32A U38A, the self-cleavage was 0.09. As to U32A U38G, the self-cleavage came to 0.02. For G30U U43C, the self-cleavage stood at 0.1. G30U U43G: the self-cleavage worked out at 0.2. As for G30U U43A, the self-cleavage stood at 0.11. On to C31U U32G, for which the self-cleavage came to 0.06.

Regarding C31U U32C, the self-cleavage worked out at 0.08. Turning to C31U U32A, the self-cleavage turned out to be 0.09. Regarding C31G C45A, the self-cleavage turned out to be 0.04. Turning to C31G C45U, the self-cleavage worked out at 0.08. On to C31G C45G, for which the self-cleavage was 0.04. Turning to G33A C37A, the self-cleavage came out at 0.12.

As to G33A C37U, the self-cleavage is 0.04. As to G33A C37G, the self-cleavage came to 0.04. For C31U G36A, the self-cleavage was 0.12. Consider C31U G36U, for which the self-cleavage worked out at 0.06.

Turning to C31U G36C, the self-cleavage came out at 0.07.

On to U32G G40U, for which the self-cleavage was determined as 0.11. Under U32G G40A stands 0.05.

On to U32G G40C, for which the self-cleavage was 0.07. Turning to G30C U43G, the self-cleavage turned out to be 0.02.

Consider G30U U38A, for which the self-cleavage came to 1. On to G30U U38C, for which the self-cleavage is 1.12.

Consider G30U U38G, for which the self-cleavage is 0.03. Regarding C31A A39C, the self-cleavage was found to be 0.05. As for C31A A39G, the self-cleavage was determined as 0.05. Take C31A A39U: the self-cleavage was 0.11. Consider C31A G40C, for which the self-cleavage turned out to be 0.04. Under C31A G40U stands 0.05; under C31A G40A, 0.04; under G33A C42A, 0.08. Turning to G33A C42U, the self-cleavage worked out at 0.14. For G33A C42G, the self-cleavage worked out at 0.06. As for C31A U32C, the self-cleavage worked out at 0.07. C31A U32G: the self-cleavage was 0.05.

C31A U32A: the self-cleavage was determined as 0.05.

With U32A A41C, the self-cleavage turned out to be 0.07. With U32A A41U, the self-cleavage worked out at 0.13. Under U32A A41G stands 0.04; under U32G C37U, 0.07.

For the variant U32G C37A, the self-cleavage was 0.09. Turning to U32G C37G, the self-cleavage was found to be 0.04.

As to U32A G40U, the self-cleavage came out at 0.16.

Take U32A G40A: the self-cleavage turned out to be 0.06. U32A G40C: the self-cleavage is 0.08. For U32C G35A, the self-cleavage amounted to 0.06. For the variant U32C G35C, the self-cleavage came to 0.08. U32C G35U: the self-cleavage worked out at 0.12. Turning to U32A U43C, the self-cleavage was found to be 0.04. Regarding U32A U43A, the self-cleavage was determined as 0.08. As for U32A U43G, the self-cleavage was 0.11.

Regarding C31G U32C, the self-cleavage came to 0.08. In the case of C31G U32A, the self-cleavage was 0.05. With C31G U32G, the self-cleavage was found to be 0.08. In the case of U32A G33U, the self-cleavage came to 0.07. In the case of U32A G33C, the self-cleavage stood at 0.08. U32A G33A: the self-cleavage came to 0.08.

On to U32C A41C, for which the self-cleavage amounted to 0.09. As to U32C A41U, the self-cleavage amounted to 0.2. Turning to U32C A41G, the self-cleavage was determined as 0.07. For G30U G33U, the self-cleavage came to 0.08. On to G30U G33A, for which the self-cleavage was 0.08. Under G30U G33C stands 0.11; under C31A C45G, 0.06. Consider C31A C45A, for which the self-cleavage was 0.05.

With C31A C45U, the self-cleavage came to 0.13. Consider C31U, for which the self-cleavage is 0.26. Regarding C31A, the self-cleavage is 0.15. Consider C31G, for which the self-cleavage stood at 0.1. Take U32A A39G: the self-cleavage was determined as 0.05. Consider U32A A39U, for which the self-cleavage worked out at 0.06. With U32A A39C, the self-cleavage worked out at 0.06. For the variant U32A U34A, the self-cleavage stood at 0.05. As to U32A U34C, the self-cleavage was determined as 0.15.

As for U32A U34G, the self-cleavage came to 0.03. As to U32A C37G, the self-cleavage was determined as 0.08. U32A C37U: the self-cleavage was found to be 0.08.

With U32A C37A, the self-cleavage amounted to 0.04. On to C31U U34C, for which the self-cleavage came to 0.12. Turning to C31U U34A, the self-cleavage turned out to be 0.06. For C31U U34G, the self-cleavage amounted to 0.04. As to G33A C45A, the self-cleavage turned out to be 0.1. G33A C45G: the self-cleavage turned out to be 0.07. In the case of G33A C45U, the self-cleavage amounted to 0.1. C31G G40U: the self-cleavage came to 0.03. Next, C31G G40A: 0.05; C31G G40C: 0.05; C31U C37A: 0.09. Under C31U C37U stands 0.07; under C31U C37G, 0.05. Turning to U32A G35A, the self-cleavage turned out to be 0.04. Turning to U32A G35C, the self-cleavage came out at 0.08. U32A G35U: the self-cleavage turned out to be 0.05.
